# Data as given in article PMC5587741, “CLEC14a-HSP70-1A interaction regulates HSP70-1A-induced angiogenesis” (Scientific Reports, 2017).
# Target: T1, recombinant human HSP70-1A (rhHSP70-1A) (human, UniProt P0DMV8 1-641)
# T1 construct: commercially available purified recombinant human HSP70-1A (HSPA1A); source: bought: Sino Biological Inc
# Experiment: BLI; Octet RED96; rhCLEC14a-ECD immobilised on amine-reactive biosensors; rhHSP70-1A 200-25 nM in 2-fold dilutions in 1x kinetics buffer; 1:1 binding model
# Details: both partners purified
# T1 sequence (P0DMV8 whole entry): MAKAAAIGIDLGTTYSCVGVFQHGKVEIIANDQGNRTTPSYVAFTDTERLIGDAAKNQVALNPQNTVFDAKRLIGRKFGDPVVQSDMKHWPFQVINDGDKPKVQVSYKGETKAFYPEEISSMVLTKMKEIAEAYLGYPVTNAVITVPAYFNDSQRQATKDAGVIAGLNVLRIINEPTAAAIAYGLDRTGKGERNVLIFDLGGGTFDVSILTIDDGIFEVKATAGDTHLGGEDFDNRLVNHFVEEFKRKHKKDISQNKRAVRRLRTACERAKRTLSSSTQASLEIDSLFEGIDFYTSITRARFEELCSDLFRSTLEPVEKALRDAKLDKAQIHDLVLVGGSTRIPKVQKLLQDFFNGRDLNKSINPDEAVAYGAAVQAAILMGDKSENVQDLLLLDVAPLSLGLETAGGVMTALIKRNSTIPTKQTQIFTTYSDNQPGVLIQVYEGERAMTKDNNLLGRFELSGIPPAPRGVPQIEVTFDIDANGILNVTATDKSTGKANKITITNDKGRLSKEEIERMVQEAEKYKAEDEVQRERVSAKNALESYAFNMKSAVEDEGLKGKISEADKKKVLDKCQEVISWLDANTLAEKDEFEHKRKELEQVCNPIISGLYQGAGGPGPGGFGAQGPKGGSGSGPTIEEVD
binder,measurement,value
"recombinant human CLEC14a extracellular domain (rhCLEC14a-ECD) (domain or fragment, UniProt Q86T13 22-397, looked up, commercially available purified recombinant human CLEC14a extracellular domain; source: bought: Abcam) EHPTADRAGCSASGACYSLHHATMKRQAAEEACILRGGALSTVRAGAELRAVLALLRAGPGPGGGSKDLLFWVALERRRSHCTLENEPLRGFSWLSSDPGGLESDTLQWVEEPQRSCTARRCAVLQATGGVEPAGWKEMRCHLRANGYLCKYQFEVLCPAPRPGAASNLSYRAPFQLHSAALDFSPPGTEVSALCRGQLPISVTCIADEIGARWDKLSGDVLCPCPGRYLRAGKCAELPNCLDDLGGFACECATGFELGKDGRSCVTSGEGQPTLGGTGVPTRRPPATATSPVPQRTWPIRVDEKLGETPLVPEQDNSVTSIPEIPRWGSQSTMSTLQMSLQAESKATITPSGSVISKFNSTTSSATPQAFDSSSA",Kd,~8 nM
